In US7056679 (ANTYRA, dated 2006):
No end group written: not given here.

Experiments:
[1] = molecular target: T1, antibody raised against ETAG; assay: phage ELISA
T1 construct: Coated at 500 ng/well; also called E-tag antibody
Procedure: (§1) For analysis of individual target binders, colonies were picked and phage prepared as described above using helper phage, M13KO7. Ninety-six-well microtiter plates were coated with 500 ng/well of specific target protein, 500 ng/well lactate dehydrogenase (LDH) irrelevant or non-specific target, 500 ng/well of positive control antibody raised against ETAG, and negative control of non-fat milk powder-PBS 2% at 4° C. overnight. Plates were then blocked with 350 microliters/well PBS containing 2% non-fat milk for 1 hr at room temperature. One hundred microliters per well of phage from isolated clones were added and plates were incubated at room temperature for 2 hr after centrifuging samples for 20 minutes at 3500 rpm at 4° C. The phage solution was then removed, and the wells were washed three times with PBS at room temperature. Antibody raised against M13 conjugated to horseradish peroxidase (Pharmacia) was diluted 1:3000 in PBS-Tween and added to each well (100 µl/well). Incubation was for 1 hr at room temperature, followed by washing with PBS-(0.5%) Tween 3 times as described. Color was developed by addition of ABTS solution (100 µl/well; Boehringer, Indianapolis, Ind.). Plates were analyzed at 405 nm. A clone was considered "positive" if the $A405$ of the well was $\geq$2-fold over background.

[2] = molecular target: T2, lactate dehydrogenase (LDH); assay: phage ELISA
T2 construct: Coated at 500 ng/well as non-specific target; also called LDH polypeptide
Procedure: as §1

DGI-2 polypeptide = molecular target: T3, DGI-2 polypeptide (UniProt Q15004 1-111, limits assumed); assay: phage ELISA
T3 construct: Soluble recombinant protein coated at 500 ng/well; vector tag of pIVEX2.3-MCS not described for this construct; also called KIAA0101
T3 sequence (looked up): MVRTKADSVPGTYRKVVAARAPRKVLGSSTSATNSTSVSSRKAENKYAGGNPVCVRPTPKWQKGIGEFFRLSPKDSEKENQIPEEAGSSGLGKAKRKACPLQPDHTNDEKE
Procedure: as §1

DGI-2 = molecular target: T4, DGI-2 (UniProt Q15004 1-111, limits assumed); assay: phage ELISA, coated DGI-2
T4 construct: Soluble recombinant DGI-2 made by in vitro translation (RTS, pIVEX2.3-MCS vector) and coated on plates for the ELISA; vector tag not described; also called KIAA0101; DGI-2 polypeptide
T4 sequence (looked up): T3 sequence (looked up)
Procedure: as §1

Q: With LGRTFVWGTCLHLSVSRFGHAAAGAPVPYPDPLEPRP [DGI-2-20F-PP-C3] as the binder, how does the “ETAG (OD)” value [1] read?
A: 39.9 OD

Q: What about the “LDH (OD)” value [2] of the same binder?
A: 1 OD

Q: And the “DGI-2 (OD)” value (DGI-2 polypeptide)?
A: 5.3 OD

Q: And the DGI-2/LDH (DGI-2 polypeptide)?
A: 5.1 ratio

Q: How did the “ETAG (OD)” value [1] turn out when YAMSSRECGIRNSGLILSMWAAAGAPVPYPDPLEPRP [DGI-2-20F-PP-C9] was run?
A: 31.6 OD

Q: And the “LDH (OD)” value [2]?
A: 0.9 OD

Q: And the “DGI-2 (OD)” value (DGI-2 polypeptide)?
A: 3.5 OD

Q: And the DGI-2/LDH (DGI-2 polypeptide)?
A: 3.9 ratio

Q: Which “ETAG (OD)” value [1] does the source give for VVHTRAWGSWAYGFVLRNRGAAAGAPVPYPDPLEPRP [DGI-2-20F-PP-F10] here?
A: 42.5 OD

Q: And the “LDH (OD)” value [2]?
A: 1.3 OD

Q: And the “DGI-2 (OD)” value (DGI-2 polypeptide)?
A: 3.5 OD

Q: And the DGI-2/LDH (DGI-2 polypeptide)?
A: 2.8 ratio

Q: Which results are given for RGSLLLTLPRLSGAVGTAYGAAAGAPVPYPDPLEPRP [DGI-2-20F-PP-B3]?
A: ETAG (OD) [1]: 11.7 OD; LDH (OD) [2]: 1.1 OD; DGI-2 (OD) (DGI-2 polypeptide): 3.4 OD; DGI-2/LDH (DGI-2 polypeptide): 3 ratio

Q: Which “ETAG (OD)” value [1] does the source give for GITGLFCLCLRSSQSIAAAGAPVPYPDPLEPRP [DGI-2-20F-P0P-D6] here?
A: 5.7 OD

Q: And the “LDH (OD)” value [2]?
A: 1 OD

Q: What about the “DGI-2 (OD)” value (DGI-2 polypeptide) of the same binder?
A: 3.3 OD

Q: And the DGI-2/LDH (DGI-2 polypeptide)?
A: 3.2 ratio

Q: For VCSGGKGTWLEIPDRVRSSTAAAGAPVPYPDPLEPRP [DGI-2-20F-PP-A22], which “ETAG (OD)” value [1] is on record?
A: 44.1 OD

Q: And the “LDH (OD)” value [2]?
A: 1 OD

Q: What about the “DGI-2 (OD)” value (DGI-2 polypeptide) of the same binder?
A: 3.3 OD

Q: And the DGI-2/LDH (DGI-2 polypeptide)?
A: 3.1 ratio

Q: Which results are given for RSYPRLCKQKGGVIGRMLPGAAAGAPVPYPDPLEPRP [DGI-2-20F-PP-B2]?
A: ETAG (OD) [1]: 35.9 OD; LDH (OD) [2]: 1.1 OD; DGI-2 (OD) (DGI-2 polypeptide): 3.3 OD; DGI-2/LDH (DGI-2 polypeptide): 2.9 ratio

Q: Which “ETAG (OD)” value [1] does the source give for VCGQRVARMQLNKTIRKLDSAAAGAPVPYPDPLEPRP here?
A: 35.1 OD

Q: What about the “LDH (OD)” value [2] of the same binder?
A: 1.1 OD

Q: And the “DGI-2 (OD)” value (DGI-2 polypeptide)?
A: 3.1 OD

Q: And the DGI-2/LDH (DGI-2 polypeptide)?
A: 2.8 ratio

Q: What does the source list for ERVSKCVGRGSGRSVGQFGGAAAGAPVPYPDPLEPRP?
A: ETAG (OD) [1]: 11.1 OD; LDH (OD) [2]: 0.9 OD; DGI-2 (OD) (DGI-2 polypeptide): 3 OD; DGI-2/LDH (DGI-2 polypeptide): 3.4 ratio

Q: With SIILAGCVWVMPCGQNLGGVAAAGAPVPYPDPLEPRP [DGI-2-20F-PP-C4] as the binder, how does the “ETAG (OD)” value [1] read?
A: 36.1 OD

Q: And the “LDH (OD)” value [2]?
A: 0.9 OD

Q: And the “DGI-2 (OD)” value (DGI-2 polypeptide)?
A: 3 OD

Q: And the DGI-2/LDH (DGI-2 polypeptide)?
A: 3.2 ratio

Q: For SSVWATWGSDLRTFGSVGFLAAAGAPVPYPDPLEPRP [DGI-2-20F-PP-C7], which “ETAG (OD)” value [1] is on record?
A: 11 OD

Q: And the “LDH (OD)” value [2]?
A: 1.1 OD

Q: And the “DGI-2 (OD)” value (DGI-2 polypeptide)?
A: 3 OD

Q: And the DGI-2/LDH (DGI-2 polypeptide)?
A: 2.6 ratio

Q: How did the “ETAG (OD)” value [1] turn out when EVFVSVWVFRFRVMPVTPGGTAAAGAPVPYPDPLEPRP [DGI-2-20F-PP-E6] was run?
A: 4.1 OD

Q: And the “LDH (OD)” value [2]?
A: 1.2 OD

Q: What about the “DGI-2 (OD)” value (DGI-2 polypeptide) of the same binder?
A: 3 OD

Q: And the DGI-2/LDH (DGI-2 polypeptide)?
A: 2.6 ratio

Q: With VRAVYSRDAYNEVGRWMRVGIAAAGAPVPYPDPLEPRP [DGI-2-20F-PP-D9] as the binder, how does the “ETAG (OD)” value [1] read?
A: 9 OD

Q: What about the “LDH (OD)” value [2] of the same binder?
A: 1 OD

Q: What about the “DGI-2 (OD)” value (DGI-2 polypeptide) of the same binder?
A: 2.9 OD

Q: And the DGI-2/LDH (DGI-2 polypeptide)?
A: 2.9 ratio

Q: How did the “ETAG (OD)” value [1] turn out when SLFERSARSRYHGSPDCNGSAAAGAPVPYPDPLEPRP [DGI-2-20F-PP-A3] was run?
A: 12.9 OD

Q: And the “LDH (OD)” value [2]?
A: 1.2 OD

Q: And the “DGI-2 (OD)” value (DGI-2 polypeptide)?
A: 2.8 OD

Q: What about the DGI-2/LDH (DGI-2 polypeptide) of the same binder?
A: 2.4 ratio

Q: Which results are given for DRSRAPLCADKSGRWQRYRRAAAGAPVPYPDPLEPRP [DGI-2-20F-PP-C10]?
A: ETAG (OD) [1]: 8.6 OD; LDH (OD) [2]: 0.9 OD; DGI-2 (OD) (DGI-2 polypeptide): 2.7 OD; DGI-2/LDH (DGI-2 polypeptide): 3.1 ratio

Q: How did the “ETAG (OD)” value [1] turn out when RVSYEMLGRRRRSMHGSSMRAAAGAPVPYPDPLEPRP [DGI-2-20F-PP-A4] was run?
A: 6.6 OD

Q: What about the “LDH (OD)” value [2] of the same binder?
A: 1.1 OD

Q: What about the “DGI-2 (OD)” value (DGI-2 polypeptide) of the same binder?
A: 2.7 OD

Q: What about the DGI-2/LDH (DGI-2 polypeptide) of the same binder?
A: 2.6 ratio

Q: Which results are given for GRAGTSMTELVAWGFVQRVGAAAGAPVPYPDPLEPRP [DGI-2-20F-PP-H10]?
A: ETAG (OD) [1]: 13 OD; LDH (OD) [2]: 0.7 OD

Q: Does LFSATGCALMSGFCLGSDGS (not fully specified; cysteine pairing not given here, on M13 phage, pIII fusion with E-tag) [DGI-2-20R-3-C1] bind (DGI-2)?
A: binds

Q: Does FRMWVQSCFWGQPGTGCGEG (not fully specified; cysteine pairing not given here, on M13 phage, pIII fusion with E-tag) [DGI-2-20R-3-D2] bind (DGI-2)?
A: binds

Q: Does VCGQRVARMQLNKTIRKLDS (on M13 phage, pIII fusion with E-tag) bind (DGI-2)?
A: binds

Q: Does TIDVARRFGYGWWDLWLDGD (on M13 phage, pIII fusion with E-tag) [DGI-2-20R-3-C3] bind (DGI-2)?
A: binds

Q: Does VSFAHDWGRWWYQWEVG (on M13 phage, pIII fusion with E-tag) [DGI-2-20R-4-G22] bind (DGI-2)?
A: binds

Q: Does DRVARLATPTAGTMAAGSLGYERTVGCDSQDWFRCVVEGL (on M13 phage, pIII fusion with E-tag) [DGI-2-40F-3-D1044] bind (DGI-2)?
A: binds

Q: Does QLDCLVWGLPGLRCDRPLEQ (not fully specified (bridges); cysteine pairing not given here, on M13 phage, pIII fusion with E-tag) [DGI-2-20R-3-B10] bind (DGI-2)?
A: binds

Q: Does RDTMCGSVSWGIPGCEYSGM (not fully specified; cysteine pairing not given here, on M13 phage, pIII fusion with E-tag) [DGI-2-20R-4-G122] bind (DGI-2)?
A: binds

Q: Does QMSRVAFSPGESWRRWVEGV (on M13 phage, pIII fusion with E-tag) [DGI-2-20R-3-A2] bind (DGI-2)?
A: binds

Q: Does DQRVVGSGWFERLRNWYDRA (on M13 phage, pIII fusion with E-tag) [DGI-2-20R-4-G99] bind (DGI-2)?
A: binds

Q: Does EGNWFCAVFRGFCVGDRGPE (not fully specified (bridges); cysteine pairing not given here, on M13 phage, pIII fusion with E-tag) [DGI-2-20R-3-A1] bind (DGI-2)?
A: binds

Q: Does VLGADAGMIWFMDGCGIRCR (not fully specified; cysteine pairing not given here, on M13 phage, pIII fusion with E-tag) [DGI-2-20R-4-E6] bind (DGI-2)?
A: binds

Q: Does RSIRLQLIDEACQFFDGLCT (not fully specified; cysteine pairing not given here, on M13 phage, pIII fusion with E-tag) [DGI-2-20R-3-A8] bind (DGI-2)?
A: binds

Q: Does ERVSKCVGRGSGRSVGQFGG (on M13 phage, pIII fusion with E-tag) bind (DGI-2)?
A: binds

Q: Does QVGGMTQVGATVLSVVTGRGSCDGEDAWYPPGVTVGLGLC (on M13 phage, pIII fusion with E-tag) [DGI-2-40F-4-F97] bind (DGI-2)?
A: binds

Q: Does SWACGLLWPGECGSQVARRG (not fully specified; cysteine pairing not given here, on M13 phage, pIII fusion with E-tag) [DGI-2-20R-3-D127] bind (DGI-2)?
A: binds

Q: Does WGCVFRQWASGSGAGCARRH (not fully specified; cysteine pairing not given here, on M13 phage, pIII fusion with E-tag) [DGI-2-20R-3-D9] bind (DGI-2)?
A: binds

Q: Does SLECWAMPGMVVRLVGCDGP (not fully specified (bridges); cysteine pairing not given here, on M13 phage, pIII fusion with E-tag) [DGI-2-20R-4-H112] bind (DGI-2)?
A: binds

Q: Does WWERFVWGRPVDDGVVVMAT (on M13 phage, pIII fusion with E-tag) [DGI-2-20R-3-B1] bind (DGI-2)?
A: binds

Q: Does RRILPWSFPGCGRMC (not fully specified; cysteine pairing not given here, on M13 phage, pIII fusion with E-tag) [DGJ-2-20R-3-A10] bind (DGI-2)?
A: binds

Q: Does RDTTSQWSWISRGWEFPGWR (on M13 phage, pIII fusion with E-tag) [DGI-2-20R-3-C2] bind (DGI-2)?
A: binds

Q: Does WAASCFWGHVALGCGRNGQG (not fully specified (bridges); cysteine pairing not given here, on M13 phage, pIII fusion with E-tag) [DGI-2-20R-3-A11] bind (DGI-2)?
A: binds

Q: Does RERWGTAWNLWTEGVVDVRP (on M13 phage, pIII fusion with E-tag) [DGI-2-20F-3-B5] bind (DGI-2)?
A: binds
